Test results taken from the supplement of paper PMC12667976.
± gives the standard error.

B1: library; numbered along this chain (parent)
chain: MATDAALRRLLRLHRTEIAVAVDSAFPLLHALADHDVVPEDKFQETLHLKEKEGCPQAFHALLSWLLTQDSTAILDFWRVLFKDYNLERYGRLQPILDSFPKDVDLSQPRKGRKPPAVPKALVPPPRLPTKRKASEEARAAAPAALTPRGTASPGSQLKAKPPKKPESSAEQQRLPLGNGIQTMSASVQRAVAMSSGDVPGARGAVEGILIQQVFESGGSKKCIQVGGEFYTPSKFEDSGSGKNKARSSSGPKPLVRAKGAQGAAPGGGEARLGQQGSVPAPLALPSDPQLHQKNEDECAVCRDGGELICCDGCPRAFHLACLSPPLREIPSGTWRCSSCLQATVQEVQPRAEEPRPQEPPVETPLPPGLRSAGEEVRGPPGEPLAGMDTTLVYKHLPAPPSAAPLPGLDSSALHPLLCVGPEGQQNLAPGARCGVCGDGTDVLRCTHCAAAFHWRCHFPAGTSRPGTGLRCRSCSGDVTPAPVEGVLAPSPARLAPGPAKDDTASHEPALHRDDLESLLSEHTFDGILQWAIQSMARPAAPFPS

Variants of: B1
Test: AIRE transcriptional activation functional score (insulin promoter-GFP; nonsense median 0, synonymous median 1) (normalised score); higher = higher AIRE activity (more reporter activation)
Conditions: with insulin promoter-GFP reporter in HEK293
Summary of the method: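 Flp-In T-REx HEK293 landing-pad cells carrying an insulin core promoter-GFP reporter received codon-optimized AIRE NNN-codon libraries (three regions) through Bxb1 recombinase. Sorting of mCherry+, BFP− integrants took place at day 7, followed by 7 days of expansion and tile-sequencing of top 10% GFP and unselected integrant populations. A functional score was derived from select versus non-select variant enrichment with wild type subtracted. Values from variants reaching 10 counts per million in non-select were set to nonsense median 0 and synonymous median 1 and averaged over biological replicates.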

AIRE transcriptional activation functional score: each site, then its substitutions
C446: P 0.448 ± 0.13, K 0.294 ± 0.11, L 0.0671 ± 0.16, A 0.113 ± 0.089, D -0.0826 ± 0.091, M -0.496 ± 0.086, Q -0.0282 ± 0.15, G 0.144 ± 0.14, S -0.132 ± 0.15, R 0.0344 ± 0.14, Y -0.213 ± 0.15, V -0.492 ± 0.2, E -1.3 ± 0.16, I 0.167 ± 0.25
C449: Q 0.388 ± 0.15, S -0.103 ± 0.24, M -0.542 ± 0.087, I -0.224 ± 0.16, F 0.317 ± 0.12, P 0.244 ± 0.13, H 0.515 ± 0.12, N -0.014 ± 0.099, D 0.418 ± 0.038, G 0.257 ± 0.22, Y 0.106 ± 0.096, L 0.195 ± 0.21, V 0.0568 ± 0.16, E 0.0473 ± 0.093, T 0.263 ± 0.08, A -0.278 ± 0.3, R 0.252 ± 0.31, W 0.0652 ± 0.069
H448: P 0.0826 ± 0.074, S 0.0363 ± 0.091, N 1.18 ± 0.2, T 1.54 ± 0.085, Y 1.26 ± 0.16, V 0.416 ± 0.19, D 0.718 ± 0.11, L 1.07 ± 0.17, F 0.906 ± 0.038, Q 1.05 ± 0.24, A 0.696 ± 0.075, I 0.59 ± 0.049, W 0.403 ± 0.12, R 0.695 ± 0.34
D439: V 0.869 ± 0.19, F -0.443 ± 0.34, A 1.1 ± 0.4, N 1.07 ± 0.088, E 0.881 ± 0.2, S 0.93 ± 0.31, G 0.919 ± 0.15, C 1.16 ± 0.086, Q 0.923 ± 0.33, K 0.809 ± 0.15, R 0.536 ± 0.33, Y 1.35 ± 0.1, W 1.2 ± 0.12, L 0.586 ± 0.25, I 0.279 ± 0.21, H 1.32 ± 0.28, P 0.0529 ± 0.088, T 1.03 ± 0.33
G435: E 0.463 ± 0.17, T 0.0827 ± 0.33, D -0.0125 ± 0.24, N 0.945 ± 0.14, H 0.284 ± 0.12, W 0.957 ± 0.092, F 0.364 ± 0.23, R 1.03 ± 0.13, P 1.14 ± 0.28, L 0.516 ± 0.29, K 1.2 ± 0.13, C 1.18 ± 0.071, S 0.74 ± 0.35, V 0.849 ± 0.31, Y 0.365 ± 0.14, I 0.437 ± 0.3, Q 0.663 ± 0.11, M 0.379 ± 0.042, A 1.16 ± 0.3
F453: D 0.307 ± 0.1, C 0.283 ± 0.1, A 0.274 ± 0.29
A452: L 0.666 ± 0.65, E 1.54 ± 0.056, K 0.517 ± 0.12, H 0.816 ± 0.12, S 1.04 ± 0.19, R 0.86 ± 0.35, M 0.473 ± 0.13, P 0.719 ± 0.14, F 0.934 ± 0.055, V 0.915 ± 0.25, G 0.775 ± 0.21, T 0.973 ± 0.13, D 0.712 ± 0.14, C 1.13 ± 0.14
R445: I 0.985 ± 0.14, E 0.42 ± 0.073, G 0.978 ± 0.24, P 0.738 ± 0.067, C 0.188 ± 0.15, L 0.998 ± 0.18, F 0.192 ± 0.16, A 0.543 ± 0.18, Q 0.898 ± 0.28, V 0.784 ± 0.24, D 0.596 ± 0.048, W 0.804 ± 0.14, K 1.17 ± 0.26, N 1.25 ± 0.17, T 0.578 ± 0.34, S 0.952 ± 0.26, H 0.423 ± 0.093
G440: K 0.598 ± 0.11, Q 1.15 ± 0.066, S 1.16 ± 0.4, V 1.3 ± 0.26, R 0.76 ± 0.21, W 0.996 ± 0.03, P 1.25 ± 0.12, D 0.799 ± 0.89, E 0.195 ± 0.054, A 0.417 ± 0.2, L 0.997 ± 0.14, F 1.04 ± 0.35
C437: G 0.0855 ± 0.11, N 0.452 ± 0.035, E 0.473 ± 0.29, Y 0.215 ± 0.15, L 0.255 ± 0.17, S 0.389 ± 0.13, F 0.199 ± 0.17, D 0.609 ± 0.19, I 0.106 ± 0.14, V 0.168 ± 0.1, K 0.35 ± 0.19, T 0.164 ± 0.18, P 0.172 ± 0.16, W 0.0698 ± 0.029, M -0.171 ± 0.072, R 0.0167 ± 0.12, A 0.0947 ± 0.07, Q 0.296 ± 0.039, H 0.0985 ± 0.1
D442: H 0.38 ± 0.23, T 0.24 ± 0.072, L 0.0551 ± 0.12, A 0.791 ± 0.17, R 0.257 ± 0.081, P 0.0269 ± 0.18, S 0.83 ± 0.2, Y 0.265 ± 0.11, C 0.845 ± 0.059, E 0.869 ± 0.1, W -0.0188 ± 0.023, K 0.322 ± 0.1, Q 1.03 ± 0.076, V -0.000931 ± 0.14, F -0.04 ± 0.047, I -0.0637 ± 0.095, G 1.08 ± 0.099, M 0.124 ± 0.025, N 0.93 ± 0.046
